Measurements: US7501122 (Genentech, dated 2009)

Assays:
ErbB3 (HER3) = target: T1, ErbB3 (HER3) (human, UniProt P21860 20-1342); assay: not described
T1 construct: whole, on cells

ErbB4 (HER4) = target: T2, ErbB4 (HER4) (UniProt Q15303 26-651, limits assumed); assay: not described
T2 sequence (looked up): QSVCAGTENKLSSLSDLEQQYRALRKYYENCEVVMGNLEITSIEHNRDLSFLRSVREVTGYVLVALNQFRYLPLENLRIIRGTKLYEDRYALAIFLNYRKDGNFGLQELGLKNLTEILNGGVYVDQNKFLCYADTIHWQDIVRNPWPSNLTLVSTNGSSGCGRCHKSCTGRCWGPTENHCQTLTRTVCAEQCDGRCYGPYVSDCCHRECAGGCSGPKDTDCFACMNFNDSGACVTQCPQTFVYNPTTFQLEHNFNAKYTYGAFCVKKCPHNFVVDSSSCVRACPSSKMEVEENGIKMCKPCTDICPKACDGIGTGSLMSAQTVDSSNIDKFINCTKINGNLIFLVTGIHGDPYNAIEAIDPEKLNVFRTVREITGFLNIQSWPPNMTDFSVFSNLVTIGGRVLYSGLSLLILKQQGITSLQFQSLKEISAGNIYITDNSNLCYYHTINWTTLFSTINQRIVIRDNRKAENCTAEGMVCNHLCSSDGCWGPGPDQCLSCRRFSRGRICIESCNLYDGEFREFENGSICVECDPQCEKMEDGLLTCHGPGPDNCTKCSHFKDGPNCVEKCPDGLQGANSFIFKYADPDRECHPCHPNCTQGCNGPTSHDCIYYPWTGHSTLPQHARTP

T1 sequence (P21860 20-1342): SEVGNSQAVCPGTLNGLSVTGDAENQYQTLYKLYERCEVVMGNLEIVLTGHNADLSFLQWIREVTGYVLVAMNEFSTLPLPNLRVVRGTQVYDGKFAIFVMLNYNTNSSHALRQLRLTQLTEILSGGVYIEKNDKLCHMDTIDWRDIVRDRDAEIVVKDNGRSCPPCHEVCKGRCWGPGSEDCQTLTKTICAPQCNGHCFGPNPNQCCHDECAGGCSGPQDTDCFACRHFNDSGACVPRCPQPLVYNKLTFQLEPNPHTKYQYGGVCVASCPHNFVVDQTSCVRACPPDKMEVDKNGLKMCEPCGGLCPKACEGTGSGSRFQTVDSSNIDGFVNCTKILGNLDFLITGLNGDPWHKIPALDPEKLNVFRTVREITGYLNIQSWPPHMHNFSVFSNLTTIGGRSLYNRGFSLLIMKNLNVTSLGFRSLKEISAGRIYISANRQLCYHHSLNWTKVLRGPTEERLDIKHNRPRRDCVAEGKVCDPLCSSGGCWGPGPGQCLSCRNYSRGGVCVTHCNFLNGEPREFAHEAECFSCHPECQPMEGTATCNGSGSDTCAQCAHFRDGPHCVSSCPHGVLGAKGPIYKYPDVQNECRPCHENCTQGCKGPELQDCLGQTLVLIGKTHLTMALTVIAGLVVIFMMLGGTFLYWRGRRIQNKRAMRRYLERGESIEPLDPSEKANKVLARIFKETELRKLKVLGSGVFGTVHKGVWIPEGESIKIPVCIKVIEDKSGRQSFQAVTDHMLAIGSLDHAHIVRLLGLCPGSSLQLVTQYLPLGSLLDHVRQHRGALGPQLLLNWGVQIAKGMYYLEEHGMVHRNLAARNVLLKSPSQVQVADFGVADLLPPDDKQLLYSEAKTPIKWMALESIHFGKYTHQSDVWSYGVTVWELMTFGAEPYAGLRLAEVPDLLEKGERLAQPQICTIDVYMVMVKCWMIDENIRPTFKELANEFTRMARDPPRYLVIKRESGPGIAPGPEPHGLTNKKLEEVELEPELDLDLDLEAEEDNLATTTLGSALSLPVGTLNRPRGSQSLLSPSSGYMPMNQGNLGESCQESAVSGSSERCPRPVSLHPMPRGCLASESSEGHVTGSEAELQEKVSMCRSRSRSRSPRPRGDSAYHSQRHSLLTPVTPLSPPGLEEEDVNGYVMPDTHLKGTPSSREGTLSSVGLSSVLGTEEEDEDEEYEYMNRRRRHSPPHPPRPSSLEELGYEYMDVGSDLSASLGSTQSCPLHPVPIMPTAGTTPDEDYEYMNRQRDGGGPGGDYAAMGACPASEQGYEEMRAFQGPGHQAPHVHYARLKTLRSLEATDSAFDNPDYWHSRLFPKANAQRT

B1: murine monoclonal antibody 2C4 (antibody, V domains shown)
VH: EVQLQQSGPELVKPGTSVKISCKASGFTFTDYTMDWVKQSHGKSLEWIGDVNPNSGGSIYNQRFKGKASLTVDRSSRIVYMELRSLTFEDTAVYYCARNLGPSFYFDYWGQGTTLTVSS
VL: DTVMTQSHKIMSTSVGDRVSITCKASQDVSIGVAWYQQRPGQSPKLLIYSASYRYTGVPDRFTGSGSGTDFTFTISSVQAEDLAVYYCQQYYIYPYTFGGGTKLEIK
notes: also called mu 2C4; intact murine 2C4
- binding result (ErbB3 (HER3)): no binding
- binding result (ErbB4 (HER4)): no binding
